From patent US20160311916A1 (ALLIGATOR BIOSCIENCE, published 2016) come the findings set out here.

Test [1] deals with T1, human CD40 (human, UniProt P25942 21-277). As to the kind of experiment: cell-based or functional assay.
Test [2] has as its target T1, human CD40. As to the kind of experiment: cell-based or functional assay. This is another data set of the same source.
The target of the next test is T2, murine CD40 (mouse, UniProt P27512 20-193, limits assumed).
T2 construct: How murine CD40 was presented in the assay is not described; also called mouse CD40
As to the kind of experiment: chimeric domain mapping, flow cytometry. From the text: (§1) Genes of CD40 human/mouse chimeras were synthesized (GenScript). The different chimeras were designed by exchanging domains or modules of the human CD40 with corresponding mouse CD40 domains or modules. The chimeras were designed after evaluation of the human and mouse sequences and 3D analysis of human CD40. The constructs were cloned into pcDNA3.1 vector (Invitrogen) using the restriction sites for NotI and HindIII. The mouse/human chimeras were transiently transfected into FreeStyle 293-F cells (Invitrogen), incubated 48 hours in FreeStyle 293 expression medium (Invitrogen) 37C, 8% CO2, 135 rpm.
(§2) Cells were analyzed with FACS Verse (BD Biosciences). Binding to the different chimeric constructs were determined with MFI to be either positive (+) or negative (−).
(In general: In flow cytometry, cells or beads pass a laser one at a time.)

Test [3] addresses T3, Fc-fused CD40 (Ancell, #504-820) (human, UniProt P25942 21-193).
T3 construct: Bought reagent; not shown: Fc part of the bought fusion protein
As to the kind of experiment: ELISA, coated Fc-fused CD40, full IgG. The protocol: (§3) Purified full IgG molecules were analysed with ELISA. High binding flat bottom LIA plates (Greiner #655074) were coated with Fc-fused CD40 (Ancell, #504-820) at 0.05 μg/ml, and milk powder were used at 3% for blocking and at 1% for dilution. The antibodies to be tested were added in serial dilutions starting at 50 μg/ml and detection was carried out using HRP conjugated goat anti human Ig-Fc (Jackson ImmunoResearch, #109-035-098) and Super Signal Pico Chemiluminescent (ThermoScientific, #37069) was used as substrate.

Test [4] addresses T3, Fc-fused CD40 (Ancell, #504-820). Kind of test: CD40 binding ELISA (summary table, Example 3). The protocol: as §3
(In general: In an ELISA, binding on a coated surface is turned into a signal by an enzyme label.)

The target of test [5] is T4, CD40hfc (R&Dsystems, USA) (human, UniProt P25942 21-193).
T4 construct: Bought reagent, amine-coupled to a CM5 chip; not shown: Fc part of the bought fusion protein
Kind of test: SPR Biacore 3000, CD40hfc immobilized (summary table, Example 6). The protocol: (§4) The affinity constants of purified antibodies were assessed by surface plasmon resonance using the Biacore 3000 instrument according to manufacturer's protocols. CD40hfc (R&Dsystems, USA) was immobilized to the BIAcore sensorchip, CM5, using conventional amine coupling. Association was followed for 3 minutes and dissociation for 12 minutes. Regeneration was performed twice using 50 mM NaOH for 30 seconds. The kinetic parameters and the affinity constants were calculated using BIAevaluation 4.1 software. The CD40 antibody clones were run over the sensor at a flow rate of 30 μl/min in HBS-P (GE, BR-1003-68) at concentration ranges between 1-100 or 1-300 nM and analyzed using 1:1 Langmuir with drifting baseline.
For orientation: SPR reads the build-up and loss of mass on a sensor chip optically.

Test [6] concerns the target T5, CD40 cys1B mouse: Human CD40 with mouse module B of domain 1 (38-59) (human; mouse, UniProt P25942 21-277).
T5 construct: Human/mouse chimera on FreeStyle 293-F cells; Human flanks inferred from the printed mouse range
T5 chain: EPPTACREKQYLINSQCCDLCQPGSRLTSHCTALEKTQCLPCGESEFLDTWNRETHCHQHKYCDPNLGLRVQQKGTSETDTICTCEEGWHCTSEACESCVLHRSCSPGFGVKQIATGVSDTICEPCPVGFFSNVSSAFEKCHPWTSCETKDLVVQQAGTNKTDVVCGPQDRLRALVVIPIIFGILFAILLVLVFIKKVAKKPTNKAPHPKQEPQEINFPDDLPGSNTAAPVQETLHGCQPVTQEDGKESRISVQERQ
Kind of test: flow cytometry on 293-F cells transfected with the chimera; MFI scored + or -.
Text: as §1, §2

The target of test [7] is T6, CD40 cys2A mouse: Human CD40 with mouse module A of domain 2 (62-77) (human; mouse, UniProt P25942 21-277).
T6 construct: Human/mouse chimera on FreeStyle 293-F cells; Human flanks inferred from the printed mouse range
T6 chain: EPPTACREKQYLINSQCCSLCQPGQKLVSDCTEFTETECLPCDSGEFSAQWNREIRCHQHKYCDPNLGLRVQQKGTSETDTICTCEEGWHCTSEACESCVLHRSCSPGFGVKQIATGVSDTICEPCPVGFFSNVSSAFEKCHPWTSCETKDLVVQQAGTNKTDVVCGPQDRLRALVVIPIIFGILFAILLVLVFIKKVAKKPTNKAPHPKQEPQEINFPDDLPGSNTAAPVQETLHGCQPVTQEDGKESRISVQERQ
The description is as above.
Text: as §1, §2

The target of test [8] is T7, CD40 cys3B mouse: Human CD40 with mouse module B of domain 3 (122-143) (human; mouse, UniProt P25942 21-277).
T7 construct: Human/mouse chimera on FreeStyle 293-F cells; Human flanks inferred from the printed mouse range
T7 chain: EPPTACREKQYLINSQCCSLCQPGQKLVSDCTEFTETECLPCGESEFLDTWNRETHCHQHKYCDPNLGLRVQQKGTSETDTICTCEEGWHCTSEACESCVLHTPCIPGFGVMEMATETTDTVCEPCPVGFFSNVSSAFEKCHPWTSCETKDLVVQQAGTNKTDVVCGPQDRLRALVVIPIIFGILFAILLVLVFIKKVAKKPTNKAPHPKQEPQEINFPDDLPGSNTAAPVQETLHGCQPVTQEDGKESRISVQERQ
The description is as above.
Text: as §1, §2

Test [9] deals with T4, CD40hfc (R&Dsystems, USA). Kind of test: SPR Biacore 3000, CD40hfc immobilized on CM5, antibody as analyte, 1:1 Langmuir. The protocol: as §4

As usually defined, the EC50 is the concentration at which the effect is half-maximal. Read a low EC50 as an effect from little substance. A word on the Kd: it is the concentration at which binding is half-saturated. Lower therefore signals tighter binding. The koff is the first-order rate constant of dissociation. In general, kon refers to the rate constant with which the complex forms. A higher kon goes with fast association.

T2 sequence (P27512 20-193 limits assumed): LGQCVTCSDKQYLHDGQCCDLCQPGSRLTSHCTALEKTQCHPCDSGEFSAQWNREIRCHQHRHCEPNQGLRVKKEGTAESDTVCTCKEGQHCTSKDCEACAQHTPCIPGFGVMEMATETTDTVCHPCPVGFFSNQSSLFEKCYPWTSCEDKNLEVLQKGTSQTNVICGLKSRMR

B1: antibody 1150/1151 (antibody, V domains shown)
VH: EVQLLESGGGLVQPGGSLRLSCAASGFTFSSYAMSWVRQAPGKGLEWVSGIGGSSSYTSYADSVKGRFTISRDNSKNTLYLQMNSLRAEDTAVYYCARYYSYHMDYWGQGTLVTVSS
VL: DIQMTQSPSSLSASVGDHVTITCRASQSISSYLNWYQQKPGKAPKLLIYAASSLQSGVPSRFSGSGSGTDFTLTISSLQPEDFATYYCQQYGSAPPTFGQGTKLEIK
With B1, the “Potency B cell proliferation (EC50)” value with human CD40 [1] was 0.9 µg/mL. For the same molecule, the “B cell proliferation (see Example 3)” value with human CD40 [2] amounted to 0.9. For the same molecule, the “DC activation (index: IL-12p40 with antibody divided by IL-12p40 with isotype control)” value with human CD40 [2] was 7.8 index. For the same molecule, the binding result with murine CD40 is “no binding”; in test [6], “no binding”; in [7] it was “binds”; in test [8], “binds”. Moreover, the EC50 in [3] and in test [4] was 0.041 µg/mL in each case. The dissociation constant Kd in test [5] and in [9] was 1.5 nM each time. The koff in [5] and in [9] was 0.0034 s⁻¹ throughout. Also, the kon in [5] and in test [9] was 2.2e+06 M⁻¹ s⁻¹ in each case.

B2: antibody 1146/1147 (antibody, V domains shown)
VH: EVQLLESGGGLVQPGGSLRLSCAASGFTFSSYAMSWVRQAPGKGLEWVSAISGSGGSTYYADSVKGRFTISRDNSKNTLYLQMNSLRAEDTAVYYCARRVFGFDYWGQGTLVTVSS
VL: DIQMTQSPSSLSASVGDRVTITCRASQSISSYLNWYQQKPGKAPKLLIYAASSLQSGVPSRFSGSGSGTDFTLTISSLQPEDFATYYCQQYYYYPFTFGQGTKLEIK
notes: Re-cloned from scFv into full IgG format, made in 293 Freestyle cells
Turning to B2, the “Potency B cell proliferation (EC50)” value in the test with human CD40 [1] amounted to 3.6 µg/mL. Also, in the test with human CD40 [2], the “B cell proliferation (see Example 3)” value was determined as 3.6. Further, the EC50 in test [3] and in [4] was 0.58 µg/mL in each case.

B3: antibody 1132/1133 (antibody, V domains shown)
VH: EVQLLESGGGLVQPGGSLRLSCAASGFTFSSYAMSWVRQAPGKGLEWVSGIGSYGGGTYYADSVKGRFTISRDNSKNTLYLQMNSLRAEDTAVYYCARYVNFGMDYWGQGTLVTVSS
VL: DIQMTQSPSSLSASVGDRVTITCRASQSISSYLNWYQQKPGKAPKLLIYAASSLQSGVPSRFSGSGSGTDFTLTISSLQPEDFATYYCQQYGRNPPTFGQGTKLEIK
notes: as for B2
Regarding B3, the “Potency B cell proliferation (EC50)” value in the test with human CD40 [1] worked out at 2.2 µg/mL. Besides, the “B cell proliferation (see Example 3)” value with human CD40 [2] was 2.2. For the same molecule, in the test with human CD40 [2], the “DC activation (index: IL-12p40 with antibody divided by IL-12p40 with isotype control)” value was found to be 10.8 index. Further, the binding result in the test with murine CD40 is “no binding”; in test [6] it was “no binding”; in test [7] it was “binds”; in test [8] it was “binds”. Also, the half-maximal effective concentration (EC50) in test [3] and in test [4] was 0.28 µg/mL throughout. The equilibrium dissociation constant (Kd) in [5] and in [9] was 2.4 nM in each case. Further, the koff in test [5] and in test [9] was 0.0081 s⁻¹ in each case. In addition, the kon in test [5] and in test [9] was 3.4e+06 M⁻¹ s⁻¹ throughout.

B4: antibody 1148/1149 (antibody, V domains shown)
VH: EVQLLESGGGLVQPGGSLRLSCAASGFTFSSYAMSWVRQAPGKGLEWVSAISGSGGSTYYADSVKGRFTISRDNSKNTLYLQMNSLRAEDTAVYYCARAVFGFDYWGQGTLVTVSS
VL: DIQMTQSPSSLSASVGDRVTITCRASQSISSYLNWYQQKPGKAPKLLIYAASSLQSGVPSRFSGSGSGTDFTLTISSLQPEDFATYYCQQAYYFPHTFGQGTKLEIK
notes: as for B2
In the case of B4, in the test with human CD40 [1], the “Potency B cell proliferation (EC50)” value came out at 2.3 µg/mL. Moreover, in the test with human CD40 [2], the “B cell proliferation (see Example 3)” value was found to be 2.3. Moreover, the EC50 in [3] and in test [4] was 2.2 µg/mL each time.

B5: antibody 1107/1108 (antibody, V domains shown)
VH: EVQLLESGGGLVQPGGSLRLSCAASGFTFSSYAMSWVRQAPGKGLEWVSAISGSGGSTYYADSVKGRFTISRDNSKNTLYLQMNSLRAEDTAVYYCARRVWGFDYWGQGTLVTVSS
VL: DIQMTQSPSSLSASVGDRVTITCRASQSISSYLNWYQQKPGKAPKLLIYAASSLQSGVPSRFSGSGSGTDFTLTISSLQPEDFATYYCQQYGVYPFTFGQGTKLEIK
notes: as for B2
With B5, in the test with human CD40 [1], the “Potency B cell proliferation (EC50)” value stood at 0.7 µg/mL. Also, the “B cell proliferation (see Example 3)” value with human CD40 [2] worked out at 0.7. The “DC activation (index: IL-12p40 with antibody divided by IL-12p40 with isotype control)” value with human CD40 [2] was 22.3 index. Moreover, the binding result in the test with murine CD40 is listed as “no binding”; in test [6], “binds”; in [7], “no binding”; in test [8], “binds”. The EC50 in test [3] and in test [4] was 0.034 µg/mL in each case. Besides, the Kd in test [5] and in test [9] was 1.3 nM throughout. Moreover, the koff in test [5] and in test [9] was 0.0013 s⁻¹ each time. Besides, the kon in test [5] and in test [9] was 1e+06 M⁻¹ s⁻¹ throughout.

B6: antibody 1134/1135 (antibody, V domains shown)
VH: EVQLLESGGGLVQPGGSLRLSCAASGFTFSSYAMSWVRQAPGKGLEWVSSIYSGGGGTSYADSVKGRFTISRDNSKNTLYLQMNSLRAEDTAVYYCARGPAYSSFFDYWGQGTLVTVSS
VL: not shown
notes: as for B2
Turning to B6, the “Potency B cell proliferation (EC50)” value in the test with human CD40 [1] was found to be 1 µg/mL. The molecule further came in with a B cell proliferation with human CD40 [2] of 1. In addition, in test [3], a half-maximal effect (EC50) was put at 0.025 µg/mL. In test [4], this molecule returned an EC50 of 0.025 µg/mL. Also, in [5], the affinity, expressed as Kd, was 3.4 nM; the koff is 0.0014 s⁻¹; the kon was found to be 400000 M⁻¹ s⁻¹. In [9], binding was characterised by a dissociation constant (Kd) of 3.4 nM, the koff was determined as 0.0014 s⁻¹ and the kon was determined as 400000 M⁻¹ s⁻¹.

B7: antibody 1136/1137 (antibody, V domains shown)
VH: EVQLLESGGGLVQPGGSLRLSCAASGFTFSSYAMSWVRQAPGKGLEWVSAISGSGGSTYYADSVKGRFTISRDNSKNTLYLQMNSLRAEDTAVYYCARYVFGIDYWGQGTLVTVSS
VL: DIQMTQSPSSLSASVGDRVTITCRASQSISSYLNWYQQKPGKAPKLLIYAASSLQSGVPSRFSGSGSGTDFTLTISSLQPEDFATYYCQQAYYAGLFTFGQGTKLEIK
notes: as for B2
On to B7, for which, in the test with human CD40 [1], the “Potency B cell proliferation (EC50)” value was 1 µg/mL. The same molecule came in with a B cell proliferation in the test with human CD40 [2] of 1. The midpoint of the response in test [3], the EC50, lay at 1.4 µg/mL. The EC50 in test [4] amounted to 1.4 µg/mL. In test [5], the equilibrium dissociation constant (Kd) came to 11 nM, the koff stood at 0.0095 s⁻¹ and the on-rate constant (kon) was 900000 M⁻¹ s⁻¹. In [9], this molecule came in with a Kd of 11 nM, a koff of 0.0095 s⁻¹ and an on-rate (kon) of 870000 M⁻¹ s⁻¹.
